B1: TPR t1 (parent)
chain: GACCAAUCUGCCCUCAGAGCUCGAGAACAUCUUCGGAUGCAGAGGAGGCAGGCUUCGGUGGCGCGAUAGCGCCAACGUCCUCAACCUCCAAUGCAUCCCACCACAUGAUGAUGCCUGAAGAGCCUUGGUUUUUUG

Variants of: B1
Assay: polymerase ribozyme fitness, log enrichment relative to wild type (log ratio); higher = more active; in vitro selection for triplet polymerase activity
Method in brief: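 Frozen incubation at −7 °C formed the core of a single, triplicate in vitro selection round applied to PCR-built, transcribed mutant libraries of each subunit of a heterodimeric triplet polymerase ribozyme. Extended constructs were gel-excised, captured with streptavidin beads and amplified by RT-PCR, and input and output libraries were Illumina-sequenced with a filter of ≥10 input reads and ≥1 read per output. Fitness is the logarithm of genotype enrichment relative to wild-type enrichment, with inverse-variance-weighted replicate averaging, and the logarithm is base 2.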

Variant | polymerase ribozyme fitness (log ratio)
GACCAAUCUGCGCUCAGAGCUCGAGAACAUCUUCGGAUGCAGAGGAGGCAGGCUUCGGUGGCGCGAUAGCGCCAACGUCCUCAACCUCCAAUGCAUCCCACCACAUGAUGAUGCCUGAAGCGCCUUGGUUUUUUG [C12G A121C] | 1.5
GACCAAUCUGCGCUCAGAGCUCGAGAACAUCUUCGGAUGCAGAGGAGGCUGGCUUCGGUGGCGCGAUAGCGCUAACGUCCUCAACCUCCAAUGCAUCCCACCACAUGAUGAUGCCUGAAGAGCCUUGGUUUUUUG [C12G A50U C73U] | -0.885
GACCAAUCUGCGCUUAGAGCUCGAGAACAUCUUCGGAUGCAGAGGAGGCAGGCUUCGGUGGCGCGAUAGCGCCUACGUCCUCAACCUCCAAUGCAUCCCACCACAUGAUGAUGCCAAAAGAGCCUUGGUUUUAUG [C12G C15U A74U U116A G117A U133A] | -1.36
GACCAAUCUGCGCUCAGAGCUCGAGAACAUCUUCGGAUGCAGAGGUGGAAGGCUUCGGUGGCGCGAUAGCGCCAACGUCCUCAACCUCCAAUGCCUCCCACCACAUGAUGAUGCCUGAAGAGCCUUGGUUUUUUG [C12G A46U C49A A95C] | -2.16
GACCAAUCUGCGCUCAGAGCUCGAGAACAUCUUCGGAUGCAGCGGAGACAGGCUUCGGUGGCGCGAUAGCGCCAACGUCCUCAACCUCCAAUGCAUCCCACCACAUGAUGAUGCCUGAAGAGCCUUGGUUUUUUG [C12G A43C G48A] | -2.3
GACCAAUCUGCGCUCAGAGCUCGAGAACAUCUUCGGGUGCAGAGGAGGCAGGCUUCGGUGGCGCGAUAGCGCCAACGUCCUCAACCUCCAAUGCAUCCCACCACAUGAUGAUGCCUGAAGAGCCUUGGUUUUUUG [C12G A37G] | 0.106
GACCAAUCUGCGCUCAGAGCUCGAGAACUUCUUCGGAUGCAGAGGAGGCAGGCUGCGGUGGUGCGAUAGCGCCAACGUCCUCAACCUCCAAUGCAUCCCACUACAUGAUGAUGCCUAAAGAGCCUUGGUUUUUUG [C12G A29U U55G C62U C102U G117A] | -4.8
GACCAAUCUGCGAUCAGAGCUCGAGAACAUCUUCGAAUGCAGAGGACGCAGGCUUCGGUGGCGCGAUAGCGCCAACGUCCUCAACUUCCAAUGCAUCCCACCACAUGAUGAUGGCUGAAGAGCCUUGGUUUUUUG [C12G C13A G36A G47C C86U C114G] | -6.13
GACCAAUCUGCGUUCAGAGAUCGAGAACAUCUUCGGAUGAAGAGGAGGCAGGCUUUGGUGGCGCGAUAGCGCCAACGUCCUCAACCUCCAAUGCAUCCCACCACAUGAUGAUGUAUGAAGAGCCUUGGUUUUUUG [C12G C13U C20A C40A C56U C114U C115A] | -3.7
GACCAAUCUGCGCUCAGAGCUCGAGAACAUCUUCGGAUGCAGAGGAGGCAGGCUUCGGUGGCGCGCUAGCGCCAACGUCCUCAACCUCCAAUGCAUCCCACCACAUGAUGAUGCCUGAAGAGCCUUGGUUUUUUG [C12G A66C] | -0.578
GACCAAUCUGCGCUCAGAGCUCGAGAACAUCUUCGGUUGCAGAGGAGGCAGGCUUCGGUGCCGCGAUAGCGCCAACGUCCUCAACCUCCAAUGCAUCCCACCACAUGAUGAUGCCUGAAGAGCCUUGGUUUUUUG [C12G A37U G61C] | -1.78
GACCAAUCUGCGCUAAGAGCUCGAGAACAUCUUCGGAUGCGGAGGAGGCAGGCUUCGGUGGCGCGAUAGCGCCAACGUCCUCAACCUCCAAUGCAUCCCACCACAUGAUAAUGCCUGAAGAGCCUUGGUUUUUUG [C12G C15A A41G G110A] | -4.25
GACCAAUCUGCGCUCAGAGCUCGAGAACAUCUUCGGAUGCAGUGCAGGCAGGCUUCGGUGGCGCGAUAGCGCAAACGACCUCAACCUCCAAGGCAUCCCACCACAUGAUGAUGCCUGAAGAGCCUUGGUUUUUUG [C12G A43U G45C C73A U78A U92G] | -2.67
GACCAAUCUGCGCUCAGAGAUCGAGUACAUCUUCGGAUGCAGAGGAGGCAGGCUUCGGUGGCGCGAUAGCGCCAACGUCCUCAACCUCCAAUGCAUCCCACCACAUGAUGAUGCCUGAAGAGCCUUGGUUUUUUG [C12G C20A A26U] | -5.8
GACCAAUCUGCGCUCAGAGCUCGAGAACUUCUUCGGAUGCAGAGGAGGCAGGCUUCGGUGGCGCGAUAGCGCCAACGUCCUCAACCUCCAAUGCAUCCCACCACAUGAUGAUGCCUAAAGAGCCUUGGUUUUUUG [C12G A29U G117A] | -2
GACCAAUCUGCGCUCAGAGCUCGAGAACAUCUUCGGAUGCAGAGGAGGCAGGCUUCGGUGGCGCGAUAGCGCCCACGUCCUCAACCUCAAAUGCAUCCCACCACAUGAUGAUGCCUGAAGAGCCUUGGUUUUUUG [C12G A74C C89A] | -1.6
GACCAAUCUGCGCUAAGAGCUCGAGAACAUCUUCGGAUGCAGAGGAGGCCGGCUUCGGUGGCGCGAUAGCGCCAACGUCCUCAACCUCCAAUGCAUCCCACCACAUGAUGAUGCCUGAAGAGCCUUGGUUUUUUG [C12G C15A A50C] | -2.29
GACCAAUCUGCGCUCAGUGCUCGAGAACAUCUUCGGAUGCAGAGUAGGCAGGCUUCGGUGGCUCGAUAGCGCCAACGUCCUCAACCUACAAUGCAUCCCACCACAUGAUGAUGCCUGAAGAGCCUUGGUUUUUUG [C12G A18U G45U G63U C88A] | -5.09
GACCAAUCUGCGCUCAGAGCUCGAGAACAUCUUCGGUUGCAGAGGAGGCAGGCUUCGGUGCCGCGAUAGCGCCAGCGUCCUCAACCUCCAAUGCAUCCCACCACAUGAUGAUGCCUGAAGAGCCUUGGUUUUUUG [C12G A37U G61C A75G] | -1.16
GACCAAUCUGCGCUCAGAGCUCGAGAACAUCUUCGGAUGCAGAGGAGGCAGGCUUCGGUGGCGCGAUAGCGCCAUCGUCCUCAACCUCCAAUGCAUCCCACCACAUGAUGAUGCCUGAAGAGCCUUGGUUUUUUG [C12G A75U] | 0.372
GACCAAUCUGCGCUCAGAGCUCGAGAACAUCUUCGGAUGCAGUGGAGGCAGGCUUCGGUGACGCGAUAGCGCCAACGUCCUCAUCCUCCAAUGCAUCCCACCACAUGAUGAUGCCUGAAGAGCCUUGGUUUUUUG [C12G A43U G61A A84U] | -1.52
